This passage reports Kd results from patent publication US7119183.

The experiment deals with human CDw32 antigen (IgG Fc receptor) (human) (UniProt P12318). As to the kind of experiment: indirect immunofluorescence on CDw32-transfected COS cells.
Sequence of UniProt P12318 (P12318 34-317 H167R limits assumed, form in doubt): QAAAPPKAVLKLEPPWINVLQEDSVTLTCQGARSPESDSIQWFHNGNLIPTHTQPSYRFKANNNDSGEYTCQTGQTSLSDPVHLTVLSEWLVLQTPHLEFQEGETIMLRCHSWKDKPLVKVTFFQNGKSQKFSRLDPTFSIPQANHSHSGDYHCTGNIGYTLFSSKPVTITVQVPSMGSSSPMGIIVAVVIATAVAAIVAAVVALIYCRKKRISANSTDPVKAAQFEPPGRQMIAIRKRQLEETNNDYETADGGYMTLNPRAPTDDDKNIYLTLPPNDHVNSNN

On to human IgG (antibody), for which the Kd was found to be 100 nM.

Substance mouse IgG (antibody) came in with a dissociation constant Kd of 100 nM.
